Test results reported in publication PMC11994974 (Virus Research, 2025).

Tests used:
[1] = molecular target: NP in H1N1 viral lysate (A/Puerto Rico/8/34) (Influenza A virus A/Puerto Rico/8/1934 …, UniProt P03466); assay: far-Western, overlay or dot blot
[2] = molecular target: NP WT 1–498 (deletion library, wild type) (Influenza A virus A/California/07/2009 …, UniProt C6KQ05, strain); assay: far-Western, overlay or dot blot
[3] = molecular target: recombinant NP of influenza A/PR/8/34 (H1N1) purified from bacteria (Influenza A virus A/Puerto Rico/8/1934 …, UniProt P03466); assay: far-Western, overlay or dot blot
[4] = molecular target: recombinant nucleoprotein (NP) of influenza A/Brisbane/10/2007 (H3N2) (Influenza A virus A/Brisbane/10/2007 …, UniProt P03466, strain); assay: BLI

B1: anti-NP mouse monoclonal antibody HB65 (antibody, V domains shown)
VH: EVKLVESGGALVNPGGSLKLSCAASGFIFSSYAMSWIRQTPEKRLEWVASTSGGGTTYYLDSVRGRFTISRDNARRILYLQMTSLRSEDTAIYFCGRDGNWFTSWGQGTLVTVSI
VL: NIVMTQSPKSMSMSVGERVTLTCKASENVVTYVSWYQQKPEQSPKLLIYGASNRYTGVPDRFTGSGSATDFTLTISSVQAEDLADYHCGQGYSYPYTFGGGTKLEIK
binding result [1]: binds
binding result [2]: binds
binding result [3]: binds
Kd [4]: 120 ± 21 nM
